The target of this experiment is NHR2-mH (TAT- and NLS-free NHR2 protein). As to the kind of experiment: cross-linking; 20 μM protein in PBS, 0.01% glutaraldehyde, room temperature, various times; SDS-PAGE, coomassie staining.

Broadly, the stoichiometry N is the number of molecules, sites or subunits per partner or assembly.

“NHR2-mH (TAT- and NLS-free NHR2 protein) (domain or fragment)” had a stoichiometry N of 4.

The record behind these values is publication PMC3707205.
